The values that follow come from patent publication US20240409645A1 (DUALYX, published 2024).

For assay [1], the target named is T1, human IL-2Rβ (human, UniProt P14784 27-240, limits assumed).
T1 construct: Recombinant protein, coated (ELISA) or immobilised on CM5 (SPR); also called hu IL-2R; interleukin 2 receptor β-chain
T1 sequence: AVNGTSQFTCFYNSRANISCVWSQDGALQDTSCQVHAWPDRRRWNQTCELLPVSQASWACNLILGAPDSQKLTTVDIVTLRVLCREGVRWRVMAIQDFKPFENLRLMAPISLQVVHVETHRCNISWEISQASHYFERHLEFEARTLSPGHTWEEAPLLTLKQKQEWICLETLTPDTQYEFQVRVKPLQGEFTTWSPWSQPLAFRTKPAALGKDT
The assay is described as follows: SPR (Biacore), P.E. off-rate ranking.

Assay [2] addresses T1, human IL-2Rβ. As to the kind of experiment: P.E. binding ELISA on coated protein. The method, then:
In a binding ELISA, human or mouse IL-2Rα, IL-2Rβ and IL-2Rγ proteins were coated directly on maxisorp microtiter plates overnight at 4° C. Free binding sites were blocked using 4% Marvel in PBS for 1 hour. Next, 1:5 dilution of P.E. in 1% Marvel/PBS were added to wells and incubated for 1 hour. […] Binding specificity was determined based on O.D. at 450 nm values compared to negative controls.

Where a chain is given by its changes, count along the chain named.

B1: FJ1427_P035MP03E04 (VHH)
VHH: QVQLVESGGGLVQTGGSLRLSCAVSGSHFISDVMGWYRQVPEKQRELVADMADGNSAKYADSVKGRFSILRDSVKNTVYLQMSSLKPEDTGIYYCKAGLWIAGRHSDYWGQGTQVTVSS
notes: soluble VHH in periplasmic extract; also called clone nr
The molecule B1 came in with a koff in assay [1] of 0.000253 s⁻¹. Moreover, the “P.E. binding ELISA OD” value in assay [2] was determined as 0.22 OD450 nm.

B2: FJ1427_P035MP03F03 (VHH)
VHH: QVQLVESGGTLVQTGGSLRLSCVVSGSHFISDVMGWYRQVPGKQRELVADMADGGSAKYGDSVKGRFTIVRDSVKNTVYLQMSSLNPEDTGVYYCKAGLWIKGRHSDYWGQGTQVTVTS
notes: as for B1
In assay [1], B2 yielded a koff of 0.000361 s⁻¹. Further, the “P.E. binding ELISA OD” value in assay [2] came out at 0.107 OD450 nm.

B3: FJ1427_P035MP03E02 (VHH)
VHH: QVQLVESGGGLVQVGGSLSVSCAASGRSFDSITMAYFRQAPGNEREFIAGINFSGSRTAYGDSVKGRFTISRDNAKNTVFLQMNSLNPEDTAVYYCAASPRGFYGPGHALYDYWGQGTQVTVSS
notes: as for B1
Take B3: in assay [1], the koff was 0.00124 s⁻¹. The “P.E. binding ELISA OD” value in assay [2] was found to be 0.488 OD450 nm.

B4: FJ1427_P035MP03E03 (VHH)
VHH: QVQLVESGGGLVQPGGSLRLSCAVSGGTLHDYGIGWIRQAPGKQREGVSCMSRSDDKTYYADYVKGRFTISKDNAKNTVYLQMISLKPEDTAVYYCAAVDAYGCSLVQPTTYDYWGQGTQVTVSS
notes: as for B1
For the molecule B4, the off-rate constant (koff) in assay [1] came to 0.00136 s⁻¹. Besides, the “P.E. binding ELISA OD” value in assay [2] stood at 0.281 OD450 nm.

B5: FJ1427_P035MP03G02 (VHH)
VHH: EVQLVESGGGLVQPGGSLRLSCAISGGTLDSYGIGWVRQAPGKQREGVSCMSRSDDRTFYADSVKGRFTISKDNAKSTVYLQMTNLKPDDTAVYYCAAVDAYGCSLVQPTTYDFWGLGTQVTVSS
notes: as for B1
The molecule B5 showed a koff in assay [1] of 0.000754 s⁻¹. For the same molecule, the “P.E. binding ELISA OD” value in assay [2] came to 0.684 OD450 nm.

B6: FJ1427_P035MP03G03 (VHH)
VHH: QVQLVESGGGLVQPGGSLGLSCAASGFTFDNYAMSWVRQAPGKGLEWVSSITGAGRGTHYADSVKGRFTISRDNAKNTLYLQMNSLKPEDTAVYYCAKYSSSTYYPPTPARGTDYRGPGTQVTVSS
notes: as for B1
For B6, the koff in assay [1] came to 0.00114 s⁻¹. For the same molecule, the “P.E. binding ELISA OD” value in assay [2] was determined as 0.137 OD450 nm.

B7: FJ1427_P035MP06B01 (VHH)
VHH: QVQLVESGGGLVQAGGSLRLSCAASGDVFVRYTMAWFRQAPGKEREFVASVTDSGRTTDYVHSVKGRFTVSRDNAKNTVYLQMNNLKPEDTAVYYCAANTDYFQIRSLDANTWGQGTQVTVSS
notes: as for B1
In assay [1], B7 returned a koff of 0.0021 s⁻¹. Moreover, the “P.E. binding ELISA OD” value in assay [2] turned out to be 0.521 OD450 nm.

B8: FJ1427_P035MP03A10 (VHH)
VHH: B7 VHH with S21A, A24L, H62A, K65Q, A75N, N85S, A110R
notes: as for B1
B8 displayed a koff in assay [1] of 0.000636 s⁻¹. In assay [2], the “P.E. binding ELISA OD” value was found to be 0.983 OD450 nm.

B9: FJ1427 P035MP03D09 (VHH)
VHH: B7 VHH with A24V, R106K
notes: soluble VHH in periplasmic extract; also called clone nr; 260
In assay [1], B9 yielded an off-rate constant (koff) of 0.00161 s⁻¹. Further, the “P.E. binding ELISA OD” value in assay [2] turned out to be 0.313 OD450 nm.

B10: FJ1427 P035MP03C08 (VHH)
VHH: B7 VHH with Q1E, S21A, A24L, H62A, K65Q, A75N, N85S, A110R
notes: as for B1
With B10, the koff in assay [1] was 0.000757 s⁻¹. Besides, the “P.E. binding ELISA OD” value in assay [2] stood at 0.972 OD450 nm.

B11: FJ1427 P035MP03E07 (VHH)
VHH: B7 VHH with A24V, S50T, D59E, H62D, Q104R
notes: as for B1
B11: the koff in assay [1] was 0.00168 s⁻¹. For the same molecule, in assay [2], the “P.E. binding ELISA OD” value came out at 0.211 OD450 nm.

B12: FJ1427 P035MP06D01 (VHH)
VHH: B7 VHH with G10R, D59E, H62D, V79A, D109N, A110L
notes: as for B1
Consider B12, for which the koff in assay [1] worked out at 0.00031 s⁻¹. Moreover, in assay [2], the “P.E. binding ELISA OD” value was 1.1 OD450 nm.

B13: FJ1427 P035MP03D07 (VHH)
VHH: B7 VHH with Q1E, V61G, H62D
notes: as for B1
With B13, the koff in assay [1] was 0.00263 s⁻¹. For the same molecule, in assay [2], the “P.E. binding ELISA OD” value came out at 0.209 OD450 nm.

B14: FJ1427_P035MP03B05 (VHH)
VHH: B7 VHH with Q1E, S21A, A24L, H62A, K65Q, A75N, N85S, A110R
notes: as for B1
B14: the koff in assay [1] was determined as 0.000898 s⁻¹. In addition, the “P.E. binding ELISA OD” value in assay [2] worked out at 0.401 OD450 nm.

B15: FJ1427 P035MP03B11 (VHH)
VHH: B7 VHH with Q1E, S21A, A24L, H62A, K65Q, A75N, N85S, A110R
notes: as for B1
As to B15, the koff in assay [1] turned out to be 0.000622 s⁻¹. Moreover, in assay [2], the “P.E. binding ELISA OD” value came out at 0.987 OD450 nm.

B16: FJ1427 P035MP03B08 (VHH)
VHH: B7 VHH with S21A, A24L, H62A, K65Q, A75N, N85S, A110R
notes: soluble VHH in periplasmic extract; also called clone nr; 250
Regarding B16, the koff in assay [1] came to 0.00064 s⁻¹. In addition, in assay [2], the “P.E. binding ELISA OD” value turned out to be 1.12 OD450 nm.

B17: FJ1427 P035MP03B10 (VHH)
VHH: B7 VHH with A23V, A24V, S50V, D59E, H62D, L108V, A110N, T112A
notes: as for B1
Molecule B17 returned a koff in assay [1] of 0.000707 s⁻¹. In addition, the “P.E. binding ELISA OD” value in assay [2] was 0.286 OD450 nm.

B18: FJ1427_P035MP03E11 (VHH)
VHH: B7 VHH with Q1E, A23V, A24V, S50A, D59E, H62D, K87E, L108V, A110N, T112A
notes: as for B1
For B18, the koff in assay [1] was determined as 0.00148 s⁻¹. In addition, in assay [2], the “P.E. binding ELISA OD” value came out at 0.624 OD450 nm.

B19: FJ1427 P035MP03C11 (VHH)
VHH: B7 VHH with S21A, A24L, H62A, K65Q, A75N, N85S, A110R
notes: as for B1
Take B19: the koff in assay [1] came to 0.000514 s⁻¹. Moreover, the “P.E. binding ELISA OD” value in assay [2] is 1.31 OD450 nm.

B20: FJ1427_P035MP03B09 (VHH)
VHH: B7 VHH with A23V, A24V, A49T, V51I, D59E, H62D, Q104R
notes: as for B1
For the molecule B20, the koff in assay [1] is 0.00202 s⁻¹. Further, the “P.E. binding ELISA OD” value in assay [2] was determined as 0.467 OD450 nm.

B21: FJ1427 P035MP03C06 (VHH)
VHH: B7 VHH with S21A, A24L, H62A, K65Q, A75N, N85S, A110R
notes: as for B1
Take B21: in assay [1], the koff was determined as 0.000658 s⁻¹. In assay [2], the “P.E. binding ELISA OD” value came to 1.21 OD450 nm.

B22: FJ1427 P035MP06C02 (VHH)
VHH: B7 VHH with A23V, A24V, S50V, D59E, H62D, L108V, A110N, T112A
notes: as for B1
For B22, the koff in assay [1] came to 0.000455 s⁻¹. For the same molecule, in assay [2], the “P.E. binding ELISA OD” value was determined as 0.799 OD450 nm.

B23: FJ1427 P035MP03B12 (VHH)
VHH: B7 VHH with Q1E, S50A, T58A, H62D, A110R
notes: as for B1
Molecule B23 returned a koff in assay [1] of 0.00125 s⁻¹. Also, the “P.E. binding ELISA OD” value in assay [2] is 0.202 OD450 nm.

B24: FJ1427 P035MP03B04 (VHH)
VHH: QVQLVESGGGLVQTGGSLRLSCAASGSQFINDVMGWYRQVPGKQRELVADMDDTGSTKYADSVKGRFTILRDSVKNTAYLQMSNLKPEDTGVYYCKAGLWIKGRHSDYWGQGTQVTVSS
notes: as for B1
With B24, the koff in assay [1] came to 0.00043 s⁻¹. Besides, the “P.E. binding ELISA OD” value in assay [2] was 0.186 OD450 nm.

B25: FJ1427_P035MP03F04 (VHH)
VHH: B24 VHH with Q1E
notes: as for B1
On to B25, for which the koff in assay [1] stood at 0.000402 s⁻¹. In addition, the “P.E. binding ELISA OD” value in assay [2] came out at 0.153 OD450 nm.

B26: FJ1427_P035MP03F06 (VHH)
VHH: B24 VHH with V5Q
notes: as for B1
Take B26: the koff in assay [1] is 0.000286 s⁻¹. Besides, the “P.E. binding ELISA OD” value in assay [2] turned out to be 0.434 OD450 nm.
